The results in this text go back to publication doi:10.1101/2025.02.25.640118 (bioRxiv, 2025).

For series [1], the target named is MsyB (Escherichia coli protein MsyB) (E. coli) (UniProt P25738). The series is described as follows: SEC.
For series [2] the target is unchanged. The series is described as follows: BLI. For orientation: Biolayer interferometry detects binding as a change in optical thickness at a sensor tip.
Series [3] addresses β-clamp (β subunit of DNA polymerase) (E. coli, UniProt P0A988 1-366). The series can be described thus: BLI.
A further series has as its target T1, HUαβ (E. coli, UniProt P0ACF0 1-90; P0ACF4 1-90).
T1 sequence (looked up) 1: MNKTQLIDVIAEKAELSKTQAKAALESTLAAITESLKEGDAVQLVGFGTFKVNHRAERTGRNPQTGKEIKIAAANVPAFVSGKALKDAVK
T1 sequence (looked up) 2: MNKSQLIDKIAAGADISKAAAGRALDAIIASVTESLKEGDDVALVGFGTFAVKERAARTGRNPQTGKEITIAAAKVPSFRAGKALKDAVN
The series can be described thus: BLI.

The next series has as its target T2, IHF (E. coli, UniProt P0A6X7 1-99; P0A6Y1 1-94).
T2 sequence (looked up) 1: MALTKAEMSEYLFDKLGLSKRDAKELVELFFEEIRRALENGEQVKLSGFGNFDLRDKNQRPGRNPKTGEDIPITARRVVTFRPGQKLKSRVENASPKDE
T2 sequence (looked up) 2: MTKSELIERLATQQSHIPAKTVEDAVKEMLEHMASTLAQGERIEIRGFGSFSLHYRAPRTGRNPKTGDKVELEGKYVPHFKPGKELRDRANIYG

Series [4] has as its target HUαα (HU alpha homodimer) (Escherichia coli, UniProt P0ACF0 1-90). The series can be described thus: EMSA. (In EMSA bound probe runs differently from free probe, usually more slowly.)

β-clamp (β subunit of DNA polymerase), sequence (P0A988 whole entry): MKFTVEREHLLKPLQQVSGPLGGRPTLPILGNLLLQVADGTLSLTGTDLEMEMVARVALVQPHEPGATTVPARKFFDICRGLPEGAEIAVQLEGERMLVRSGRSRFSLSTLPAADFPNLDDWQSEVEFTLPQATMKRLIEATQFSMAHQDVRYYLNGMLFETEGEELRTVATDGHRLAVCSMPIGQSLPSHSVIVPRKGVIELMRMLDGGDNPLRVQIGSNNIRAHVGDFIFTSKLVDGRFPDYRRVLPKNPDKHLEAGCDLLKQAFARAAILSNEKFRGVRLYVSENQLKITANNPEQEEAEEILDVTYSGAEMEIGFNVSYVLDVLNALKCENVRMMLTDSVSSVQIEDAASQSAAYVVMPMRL

For “HUαα (from UniProt P0ACF0 1-90) (natural protein)”, the stoichiometry N (as a rule, a count of units in the complex or per binding partner) in series [1] was 1. Further, in series [2], the equilibrium dissociation constant (Kd) (usually a measure of binding affinity in units of concentration) was found to be 4.88 nM.
“β-clamp (β subunit of DNA polymerase) (from UniProt P0A988 1-366) (natural protein)” returned a Kd in series [2] of 700 nM.

B1: HUαα-MsyB complex (complex, E. coli)
chain 1: T1 sequence (looked up) 1
chain 2: MTMYATLEEAIDAAREEFLADNPGIDAEDANVQQFNAQKYVLQDGDIMWQVEFFADEGEEGECLPMLSGEAAQSVFDGDYDEIEIRQEWQEENTLHEWDEGEFQLEPPLDTEEGRAAADEWDER
In series [3], B1 displayed a Kd of 500 nM.

B2: MsyB (Escherichia coli protein MsyB) (natural protein, E. coli, UniProt P25738 1-124, looked up)
chain: B1 chain 2
For the molecule B2, the Kd in the series with HUαβ is 3.22 nM; with IHF, 95 nM.

B3: dsDNA (DNA1/DNA2), 21 bp (dsDNA)
DNA 1: TGCTTATCAATTTGTTGCACC
DNA 2: GGTGCAACAAATTGATAAGCA
Consider B3, for which the binding result in series [4] is “binds”.
